Assay results as given in article doi:10.1101/2020.06.17.157404.

Assays:
[1] = target: CFP:MtRH10 (Medicago truncatula); test: FRET or BRET
[2] = target: RPL7:CFP (Medicago truncatula); test: FRET or BRET

Substance: AeSSP1256:YFP (natural protein)
- mean CFP lifetime of the donor with the acceptor (2.86 ns +/- 0.02 without) [1]: 2.53 ns
- mean CFP lifetime of the donor with the acceptor (2.83 ns +/- 0.03 without) [2]: 2.46 ns
